These results are taken from paper PMC11756078, “Effects of genetic ablation and pharmacological inhibition of HuR on gene expression, iron metabolism, and hormone levels” (BMC Biology, 2025).

The target in data set [1] is HuR (Recombinant Human Elav-like protein 1, ELAVL1/HuR) (Homo sapiens, UniProt Q15717). Description: fluorescence anisotropy, displacement of pri-miR-7-1 CTL 6-FAM RNA from purified recombinant HuR; RP-CONA in HeLa extracts gave IC50 […]. It is filed as binding. Background: Fluorescence polarisation rises when a labelled molecule tumbles more slowly, as on binding a larger partner.

Data set [2] has as its system mCherry-HuR (human (HeLa HuR KO cells; HuR species implied)?). Kind of data set: RP-CONA (on-bead RNA pull-down, confocal imaging). As to conditions: Anisotropy: phosphate buffer pH 7.5, 25 mM MgCl (so in the source), 250 mM NaCl, 0.1% Tween 20, 5 mM DTT, temperature not stated, RP-CONA: cell extract on ….
For data set [3], the system named is HuR (ELAV-like protein 1), recombinant (human). Description: fluorescence anisotropy. As to conditions: Anisotropy: phosphate buffer pH 7.5, 25 mM MgCl (so in the source), 250 mM NaCl, 0.1% Tween 20, 5 mM DTT, temperature not stated; RP-CONA: cell extract on ….

Chain of HuR (Recombinant Human Elav-like protein 1, ELAVL1/HuR) (Q15717 2-326): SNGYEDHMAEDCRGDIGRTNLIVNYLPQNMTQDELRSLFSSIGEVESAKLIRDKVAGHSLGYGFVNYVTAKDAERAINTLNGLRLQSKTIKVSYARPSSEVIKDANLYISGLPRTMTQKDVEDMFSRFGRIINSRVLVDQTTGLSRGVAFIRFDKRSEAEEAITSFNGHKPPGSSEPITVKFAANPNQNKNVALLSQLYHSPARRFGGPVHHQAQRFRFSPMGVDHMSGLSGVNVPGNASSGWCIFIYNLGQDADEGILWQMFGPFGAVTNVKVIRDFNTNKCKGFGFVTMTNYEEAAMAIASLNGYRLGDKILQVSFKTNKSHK

In the case of `CC1=NN(c2ccc(C)c(C)c2)C(=O)/C1=N\Nc1cccc(-c2cccc(C(=O)O)c2)c1O` [E20, Eltrombopag], in data set [1], the IC50 was determined as 19 µM.
In the case of “pri-miR-7 CTL (pri-miR-7-6-FAM), RP-CONA”, the binding signal in data set [2] (20 uM Eltrombopag) amounted to 80 % inhibition. In data set [2] (IC50 is of Eltrombopag (0-50 uM) inhibiting the complex, not HuR affinity), this compound came in with an IC50 of 5.9 µM.
For pri-miR-7-1-6-FAM CTL, anisotropy, the concentration for half-maximal inhibition (IC50) in data set [3] came out at 19 µM.

Broadly, the IC50 is the concentration that inhibits the measured activity by half.
